Data as given in PMC4622456 (mAbs, 2015).
Substitutions are numbered along the chain they refer to. Numbers in names are those of the source.

How the values were obtained:
[1] = molecular target: T1, recombinant human IL23 (human, UniProt Q9NPF7;P29460); assay: cell-based or functional assay
[2] = molecular target: T1, recombinant human IL23; assay: BLI
[3] = molecular target: T1, recombinant human IL23; assay: SPR
[4] = molecular target: recombinant cynomolgus IL23 (Macaca fascicularis, UniProt H6WS56;H6WS55); assay: SPR
[5] = molecular target: T1, recombinant human IL23; assay: BLI; remark: listed apart in the source
[6] = molecular target: recombinant rat IL23 (Rattus norvegicus, UniProt Q91Z84;Q9R278); assay: SPR
[7] = molecular target: recombinant mouse IL23 (Mus musculus, UniProt Q9EQ14;P43432); assay: SPR
Chain of recombinant mouse IL23 (Q9EQ14 22-196, chain 1 of 2): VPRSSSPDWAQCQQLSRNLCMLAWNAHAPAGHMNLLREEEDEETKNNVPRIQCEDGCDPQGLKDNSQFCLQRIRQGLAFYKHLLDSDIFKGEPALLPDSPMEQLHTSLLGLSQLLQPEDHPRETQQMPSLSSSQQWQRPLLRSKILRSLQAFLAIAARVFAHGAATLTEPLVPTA
Chain of recombinant mouse IL23 (P43432 23-335, chain 2 of 2): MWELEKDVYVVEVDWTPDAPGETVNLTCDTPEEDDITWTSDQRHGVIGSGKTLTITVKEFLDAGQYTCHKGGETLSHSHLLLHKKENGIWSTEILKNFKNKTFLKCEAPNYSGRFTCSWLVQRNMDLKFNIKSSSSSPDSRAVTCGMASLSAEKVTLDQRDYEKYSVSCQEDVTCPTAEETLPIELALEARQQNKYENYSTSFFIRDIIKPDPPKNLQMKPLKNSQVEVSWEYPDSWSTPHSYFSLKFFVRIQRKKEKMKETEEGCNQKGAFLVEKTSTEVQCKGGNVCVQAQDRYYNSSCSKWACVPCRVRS

[8] = molecular target: T1, recombinant human IL23; assay: SPR; remark: listed apart in the source
[9] = molecular target: T1, recombinant human IL23; assay: SPR; remark: listed apart in the source

T1 sequence (Q9NPF7 20-189, chain 1 of 2): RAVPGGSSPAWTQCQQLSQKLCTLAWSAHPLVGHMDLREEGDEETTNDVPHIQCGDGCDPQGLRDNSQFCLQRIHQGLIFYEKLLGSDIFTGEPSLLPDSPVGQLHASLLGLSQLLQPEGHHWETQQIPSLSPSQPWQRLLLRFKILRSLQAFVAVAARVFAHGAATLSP
T1 sequence (P29460 23-328, chain 2 of 2): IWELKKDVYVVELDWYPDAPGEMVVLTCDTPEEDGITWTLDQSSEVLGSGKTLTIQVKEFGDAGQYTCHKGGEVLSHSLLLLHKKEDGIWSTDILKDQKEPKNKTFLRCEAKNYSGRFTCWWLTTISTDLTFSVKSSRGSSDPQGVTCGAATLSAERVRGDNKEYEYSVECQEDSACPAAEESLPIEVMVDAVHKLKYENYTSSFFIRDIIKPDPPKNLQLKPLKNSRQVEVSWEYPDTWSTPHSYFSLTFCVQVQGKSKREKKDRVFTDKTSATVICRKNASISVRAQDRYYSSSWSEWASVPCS

B1: 15C11 (antibody, V domains shown)
VH: EVQLQQSGPVLVKPGASVKMSCKASGYTFTDYYMNWVKQSHGKSLEWIGVIIPYNGGTSYNQKFKGKATLTVDKSSSTAYMELNSLTSEDSAVYYCARDGHRWYFDVWGTGTTVTVSS
VL: DVVMTQTPLSLPVSLGDQASISCRSSQSLVHSNGNTYLHWYLQKPGQSPKLLIYKVSNRFSGVPDRFSGSGSGTDFTLKINRVEAEDLGVYFCSQSTHVPYTFGGGTQLEIK
In the case of B1, the “Inhibition of IL23 induced IL17 production in mouse splenocytes (IC50, pM)” value (shortened to “Inhibition”) [1] is reported as 197 pM and the Kd [2] is reported as 0.026 nM.

B2: 34G3 (antibody, V domains shown)
VH: EFQLQQSGPELVKPGASVKISCKASGYSFTDYNMNWVKQSKGKSLEWIGVIIPNYGFTSYNQNFKGKATLTVDQSSSTAHMQLNSVTSEDSAVYYCVRDGGILLWYLDVWGTGTTVTVSS
VL: B1 VL with N81S, Q108K, K112N
In the case of B2, the “Inhibition” value [1] is reported as 8 pM and the Kd [2] is reported as 0.033 nM.

B3: 18E5 (antibody, V domains shown)
VH: EVQLQQSGPELVKPGAAVKMSCKASGYTFTRYLIHWVKQKPGQGLEWIGYINPYNDGTKYNEKFKGKATLTSDKSSSTAYMELSSLTSEDSAVYYCTSNWDLDYWGQGTTLTVSS
VL: DIVMTQSPATLSVTPGDRVSLSCRASQSISDYLYWYQQKSHESPRLLIKFASQSISGIPSRFTGSGSGSDFTLSIDSVEPDDVGVFFCQNGHSFPFTFGGGTKLEIK
B3 was tested, and the “Inhibition” value [1] was < 13 pM and the Kd [2] was < 0.01 nM.

B4: mouse 6B8 (antibody, V domains shown)
VH: QVQLQQSDAELVKPGTSVKTSCKISGNTFTDQTIHWMKQRPEQGLEWIGYIYPRDDSPKYNENFKGKATLTADKSSSTAYMQLNSLTSEDSAVYFCAIPDRSGYAWFIYWGQGTLVTVSS
VL: DIVMTQSHKFLSTSVGDRVTITCKASRDVAIAVAWYQQKPGQSPKLLLFWASTRHTGVPDRFTGSGSRTDFTLTISNVQSEDLADYFCHQYSSYPFTFGSGTKLEIK
B4 was tested, and the “Inhibition” value [1] was 8 pM and the Kd [3] was 0.025 nM.

B5: recombinant chimeric 6B8 (antibody, V domains shown)
VH: B4 VH
VL: B4 VL
For B5, the Kd [3] was < 0.01 nM.

B6: 26F7 (antibody, V domains shown)
VH: EVQLQQSGPELVKPGASVKISCKASGYTFTDYYMNWVRQSHGESLEWIGDFNHNNDVITYNPKFKGKVTLTVEKSSTTAYMELRSLSSEDSAVYYCARGLRGYYAMDYWGQGTSVTVSS
VL: DIVLTQSPASLAVSLGQRATISCRASKSVRFSDYFYMHWYQQKPGQPPKLLIYLASNLESGVPARFSGSGSGTDFTLNIHPVEEEDAATYYCQNSRELPYTFGGGTKLEIK
With B6 the “Inhibition” value [1] was 9 pM and the Kd [2] was 0.028 nM.

B7: BI 655067 (VH 05-Vk65 IgG1) (antibody, V domains shown)
VH: QVQLVQSGAEVKKPGSSVKVSCKASGFTFTDQTIHWVRQAPGQGLEWMGYIYPRDDSPKYNENFKGKVTLTADKSTSTAYMELSSLRSEDTAVYYCAIPDRSGYAWFIYWGQGTLVTVSS
VL: DIQMTQSPSSLSASVGDRVTITCKASRDVAIAVAWYQQKPGKVPKLLLFWASTRHTGVPDRFSGSGSGTDFTLTISSLQPEDLADYYCHQYSSYPFTFGQGTKLEIK
In the case of B7, the Kd [4] is reported as < 0.01 nM, the “kon(serum)/kon(buffer)” value [5] is reported as 1.2 and the binding result [6] is reported as “no binding (tested: 1.2 μM)”. The binding result [7] was “no binding (tested: 1.2 μM)” and the Kd [8] was < 0.01 nM.

B8: VH 65-Vk78 IgG1 (antibody, V domains shown)
VH: B7 VH with F27G, K67R, Y95F, I98R
VL: B7 VL with G68R, Q100S
For B8, the Kd [8] was < 0.01 nM.

B9: VH 36-Vk66 IgG1 (antibody, V domains shown)
VH: B7 VH with V20T, F27G, A40R, K67R, L70I
VL: B7 VL with L48I, F49Y, D60S, G68R, L83V, Y87F, Q100S
With B9 the Kd [8] was < 0.01 nM.

B10: VH 36-Vk65 IgG1 (antibody, V domains shown)
VH: B7 VH with V20T, F27G, A40R, K67R, L70I
VL: B7 VL
With B10 the Kd [8] was 0.096 nM.

B11: BI 655069 (VH 05-Vk66 IgG1) (antibody, V domains shown)
VH: B7 VH
VL: B7 VL with L48I, F49Y, D60S, G68R, L83V, Y87F, Q100S
With B11 the Kd [4] was 0.016 nM, the “kon(serum)/kon(buffer)” value [5] was 1.2 and the binding result [6] was “no binding (tested: 1.2 μM)”. The binding result [7] was “no binding (tested: 1.2 μM)” and the Kd [8] was 0.036 nM.

B12: BI 655066, CHO derived (antibody, V domains shown)
VH: B7 VH with F27Y, V37M, M48I, L70I
VL: B7 VL with L48I, F49Y, D60S, G68R, L83V, Y87F, Q100S
With B12 the Kd [9] was < 0.01 nM.

B13: BI 655066, NS0 derived (human IgG1 Fc L234A, L235A) (antibody, V domains shown)
VH: B7 VH with F27Y, V37M, M48I, L70I
VL: B7 VL with L48I, F49Y, D60S, G68R, L83V, Y87F, Q100S
For B13, the Kd [9] was < 0.01 nM.

B14: VH 36-Vk78 IgG1 (antibody, V domains shown)
VH: B7 VH with V20T, F27G, A40R, K67R, L70I
VL: B7 VL with G68R, Q100S
With B14 the Kd [8] was < 0.01 nM.

B15: VH 02-Vk78 IgG1 (antibody, V domains shown)
VH: B7 VH with F27Y, V37M, M48I, L70I
VL: B7 VL with G68R, Q100S
B15 was tested, and the Kd [8] was < 0.01 nM.

B16: BI 655068 (VH 02-Vk65 IgG1) (antibody, V domains shown)
VH: B7 VH with F27Y, V37M, M48I, L70I
VL: B7 VL
For B16, the Kd [4] was < 0.01 nM, the “kon(serum)/kon(buffer)” value [5] was 1 and the binding result [6] was “no binding (tested: 1.2 μM)”. For the same binder, the binding result [7] was “no binding (tested: 1.2 μM)” and the Kd [8] was 0.015 nM.

B17: BI 655066 (VH 02-Vk66 IgG1) (antibody, V domains shown)
VH: B7 VH with F27Y, V37M, M48I, L70I
VL: B7 VL with L48I, F49Y, D60S, G68R, L83V, Y87F, Q100S
B17 was tested, and the Kd [4] was < 0.01 nM, the “kon(serum)/kon(buffer)” value [5] was 1.2 and the binding result [6] was “no binding (tested: 1.2 μM)”. For the same binder, the binding result [7] was “no binding (tested: 1.2 μM)” and the Kd [8] was < 0.01 nM.

B18: VH 65-Vk65 IgG1 (antibody, V domains shown)
VH: B7 VH with F27G, K67R, Y95F, I98R
VL: B7 VL
B18 gave a Kd [8] of 0.107 nM.

B19: VH 65-Vk66 IgG1 (antibody, V domains shown)
VH: B7 VH with F27G, K67R, Y95F, I98R
VL: B7 VL with L48I, F49Y, D60S, G68R, L83V, Y87F, Q100S
For B19, the Kd [8] was < 0.01 nM.
